The values below are quoted from earlier work in paper PMC5538147.

As a reminder, the Kd is a measure of binding affinity in units of concentration.

The target in the series is UvrD (Escherichia coli) (UniProt P03018).

With UvrD (from UniProt P03018), the Kd is 0.47 µM.
